Assay results reported in patent US20110135636A1 (SYMPHOGEN A S, published 2011).
Positions count from the first letter of the chain named.

B1: antibody 1260 (antibody, human IgG1, kappa, V domains shown)
VH: QVQLKESGPGLVAPSQSLSITCTVSGFSLTTYGVHWVRQPPGKGLEWLGVIWAGGSTNYNSALMSRLSIKKDNSKSQVFLKMNSLQTDDTAMYYCARAYGYNFDYWGQGTTLTVSS
VL: DIQMTQTTSSLSASLGDRVTISCSASQGITNYLNWYQQKPDGTVKLLIYYSSSLHSGVPSRFSGSGSGTDYSLTISNLEPEDIATYYCQQYSEIPYTFGGGTKLELKR
notes: Chimeric IgG1 kappa
B2: antibody 1320 (antibody, human IgG1, kappa, V domains shown)
VH: QVQLQQPGAELVKPGASMKLSCKASGYTFTNYWMHWVKQRPGQGLEWIGEINPSNGRTNYNEKFKSKATLTVDKSSSTAYMQLSSLTSEDSGVYYCAKGGNYYDYDWDYWGQGTTLTVSS
VL: B1 VL with G28D, T30S, Y50H, S51T, S53T, E93K, I94L, Y96W, L106I
notes: Chimeric IgG1 kappa
B3: antibody 1347 (antibody, human IgG1, kappa, V domains shown)
VH: QVQLKESGPGLVAPSQSLSITCTVSGFSLTGHGVNWVRQPPGKGLEWLGMIWGDGSTDYNSTLKSRLSISKDNSKSQVFLKMNSLQTDDTARYYCARGYGYLYYFDYWGQGTTLTVSS
VL: ENVLTQSPAIMSASPGEKVTMTCRASSSVSSSYLHWYQQKSGASPKLWIYSTSNLASGVPARFSGSGSGTSYSLTVNSVETEDAATYYCHQYSGFPFTFGSGTKLELKR
notes: Chimeric IgG1 kappa
B4: antibody 1308 (antibody, human IgG1, kappa, V domains shown)
VH: EVQLQQSGAELVRPGSSVKISCKASGYAFSSYWMNWVRQRPGQGLEWIGQIYPGDGDTNYNGKFKGRATLTANKSSSTAYMQLSSLTSEDSAVYFCARRASSLYDVYPYYFDYWGQGTTLTVSS
VL: DIQMTQTTSSLSASLGDRVTISCRASQDISNYLNWYQQKPDGTVKVLIYYTSRLHSGVPSRFSGSGSGTDYSLTISNLEQEDIATYFCQQGNTLPYTFGGGTKLEIKR
notes: Chimeric IgG1 kappa
B5: antibody 1261 (antibody, human IgG1, kappa, V domains shown)
VH: EVQLVESGGGLVKPGGSLKLSCAVSGFTFSSYVMSWVRQTPEKRLEWVATITSGGRNIYYLDSVKGRFTISRDNAKNTLYLQMSSLRSEDTAMYYCARHEDYRYDGYYAMDYWGQGTSVTVSS
VL: QIVLTQSPAIMSASPGEKVTITCSASSSVSYMHWFQQKPGTSPKLWIYSTSNLASGVPARFSGSGSGTSYSLTISRMEAEDAATYYCQQRSSYPYTFGGGTKLELKR
notes: Chimeric IgG1 kappa
B6: antibody 1284 (antibody, human IgG1, kappa, V domains shown)
VH: QVQLQQPGAELVKPGASVKLSCKASGYTFTSDWMHWMKQRPGQGLEWIGEINPSNGRSSYNEKFKSKATLTVDKSSSTAYMQLSSLTSEDSAVYYCARIGGIYVETYWGQGTLVTVSS
VL: DIVLTQSPASLAVSLGQRATISCRASQSVSTSTYSYMHWYQQKSGQPPKLLIKYASNLESGVPARFSGSGSGTDFTLNIHPVEEEDTATYYCQHSWEIPWTFGGGTKLEIKR
notes: Chimeric IgG1 kappa

Target: T1, recombinant human EGFR extracellular domain with 6xHis (human, UniProt P00533 25-645)
T1 construct: In-house produced; also called 6xHis EGFR ECD; soluble human EGFR ECD; not shown: 6xHis tag
Assay: SPR competition, competitor Ab-1
Method in brief: (§1)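 Competitor antibodies were loaded onto EGFR ECD captured through anti-His antibody, each in a separate flow cell. The anti-EGFR mAb was then injected straight after.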

First: B1
Second: B2
The “% inhibition” value of the first is higher: 7% for the first, 3% for the second.

Compared with B3, B4 is lower in “% inhibition” value: -3% for the first, -5% for the second.

Going from B5 to B6, the “% inhibition” value falls from -4% to -9%.

Target: T1, recombinant human EGFR extracellular …
Assay: SPR competition, competitor Ab-3
Method in brief: as §1

First: B1
Second: B2
The “% inhibition” value of the first is higher: 64% for the first, 2% for the second.

B3 and B4 are the same in “% inhibition” value: 11% for the first, 11% for the second.

First: B5
Second: B6
The “% inhibition” value of the first is higher: 54% for the first, 9% for the second.

Target: T1, recombinant human EGFR extracellular …
Assay: SPR competition, competitor Ab-5
Method in brief: as §1

Compared with B1, B2 is lower in “% inhibition” value: 1% for the first, -3% for the second.

First: B3
Second: B4
The “% inhibition” value of the first is higher: -1% for the first, -4% for the second.

Compared with B5, B6 is lower in “% inhibition” value: -3% for the first, -13% for the second.

Target: T1, recombinant human EGFR extracellular …
Assay: SPR competition, competitor 1024
Method in brief: as §1

Compared with B1, B2 is higher in “% inhibition” value: 33% for the first, 93% for the second.

First: B3
Second: B4
The “% inhibition” value of the first is higher: 4% for the first, 3% for the second.

Compared with B5, B6 is higher in “% inhibition” value: -24% for the first, 0% for the second.

Target: T1, recombinant human EGFR extracellular …
Assay: SPR competition, competitor 1208
Method in brief: as §1

First: B1
Second: B2
The “% inhibition” value of the first is higher: 33% for the first, -3% for the second.

Compared with B3, B4 is higher in “% inhibition” value: 0% for the first, 1% for the second.

First: B5
Second: B6
The “% inhibition” value of the first is lower: -24% for the first, -2% for the second.

Target: T1, recombinant human EGFR extracellular …
Assay: SPR competition, competitor 1254
Method in brief: as §1

Going from B1 to B2, the “% inhibition” value falls from 22% to 3%.

B3 and B4 are the same in “% inhibition” value: 0% for the first, 0% for the second.

Going from B5 to B6, the “% inhibition” value rises from -12% to -3%.

Target: T1, recombinant human EGFR extracellular …
Assay: SPR competition, competitor 1257
Method in brief: as §1

First: B1
Second: B2
The “% inhibition” value of the first is higher: 55% for the first, 2% for the second.

Going from B3 to B4, the “% inhibition” value rises from 19% to 27%.

Going from B5 to B6, the “% inhibition” value falls from 58% to 0%.

Target: T1, recombinant human EGFR extracellular …
Assay: SPR competition, competitor 1260
Method in brief: as §1

Going from B1 to B2, the “% inhibition” value falls from 88% to -4%.

Compared with B3, B4 is higher in “% inhibition” value: 41% for the first, 86% for the second.

Going from B5 to B6, the “% inhibition” value rises from 75% to 79%.

Target: T1, recombinant human EGFR extracellular …
Assay: SPR competition, competitor 1261
Method in brief: as §1

First: B1
Second: B2
The “% inhibition” value of the first is higher: 97% for the first, 4% for the second.

Going from B3 to B4, the “% inhibition” value rises from -23% to -9%.

First: B5
Second: B6
The “% inhibition” value of the first is higher: 95% for the first, 4% for the second.

Target: T1, recombinant human EGFR extracellular …
Assay: SPR competition, competitor 1277
Method in brief: as §1

Going from B1 to B2, the “% inhibition” value falls from 25% to 0%.

First: B3
Second: B4
The “% inhibition” value of the first is lower: 6% for the first, 7% for the second.

First: B5
Second: B6
The “% inhibition” value of the first is lower: -19% for the first, -3% for the second.

Target: T1, recombinant human EGFR extracellular …
Assay: SPR competition, competitor 1284
Method in brief: as §1

Going from B1 to B2, the “% inhibition” value falls from 67% to 5%.

First: B3
Second: B4
The “% inhibition” value of the first is lower: 61% for the first, 76% for the second.

Going from B5 to B6, the “% inhibition” value rises from -8% to 98%.

Target: T1, recombinant human EGFR extracellular …
Assay: SPR competition, competitor 1320
Method in brief: as §1

Compared with B1, B2 is higher in “% inhibition” value: 26% for the first, 97% for the second.

B3 and B4 are the same in “% inhibition” value: 2% for the first, 2% for the second.

First: B5
Second: B6
The “% inhibition” value of the first is lower: -18% for the first, -1% for the second.

Target: T1, recombinant human EGFR extracellular …
Assay: SPR competition, competitor 1344
Method in brief: as §1

Compared with B1, B2 is lower in “% inhibition” value: 83% for the first, 2% for the second.

First: B3
Second: B4
The “% inhibition” value of the first is lower: 38% for the first, 67% for the second.

Compared with B5, B6 is higher in “% inhibition” value: 65% for the first, 73% for the second.

Target: T1, recombinant human EGFR extracellular …
Assay: SPR competition, competitor 1347
Method in brief: as §1

Compared with B1, B2 is lower in “% inhibition” value: 46% for the first, 5% for the second.

First: B3
Second: B4
The “% inhibition” value of the first is higher: 70% for the first, 65% for the second.

First: B5
Second: B6
The “% inhibition” value of the first is lower: 4% for the first, 62% for the second.

Target: T1, recombinant human EGFR extracellular …
Assay: SPR competition, competitor Ab-10
Method in brief: as §1

First: B1
Second: B2
The “% inhibition” value of the first is higher: 12% for the first, -2% for the second.

First: B3
Second: B4
The “% inhibition” value of the first is higher: -1% for the first, -3% for the second.

Compared with B5, B6 is lower in “% inhibition” value: -6% for the first, -8% for the second.

Target: T1, recombinant human EGFR extracellular …
Assay: SPR competition, competitor Ab-11
Method in brief: as §1

First: B1
Second: B2
The “% inhibition” value of the first is higher: 99% for the first, -6% for the second.

First: B3
Second: B4
The “% inhibition” value of the first is higher: 86% for the first, 85% for the second.

Going from B5 to B6, the “% inhibition” value falls from 94% to -15%.

Target: T1, recombinant human EGFR extracellular …
Assay: SPR competition, competitor ICR10
Method in brief: as §1

First: B1
Second: B2
The “% inhibition” value of the first is higher: 91% for the first, -3% for the second.

Going from B3 to B4, the “% inhibition” value falls from 17% to 15%.

Going from B5 to B6, the “% inhibition” value rises from 24% to 86%.

Target: T1, recombinant human EGFR extracellular …
Assay: SPR competition, competitor Erbitux
Method in brief: as §1

First: B1
Second: B2
The “% inhibition” value of the first is higher: 8% for the first, 2% for the second.

Compared with B3, B4 is lower in “% inhibition” value: -4% for the first, -6% for the second.

Going from B5 to B6, the “% inhibition” value falls from -2% to -7%.

Target: T1, recombinant human EGFR extracellular …
Assay: SPR competition, competitor Erbitux
Remark: another data set of the same source
Method in brief: as §1

Compared with B1, B2 is lower in “% inhibition” value: 8% for the first, 2% for the second.

Going from B3 to B4, the “% inhibition” value falls from -4% to -6%.

B5 and B6 are the same in “% inhibition” value: -2% for the first, -2% for the second.

Target: T1, recombinant human EGFR extracellular …
Assay: SPR competition, competitor Vectibix
Method in brief: as §1

Going from B1 to B2, the “% inhibition” value falls from 10% to 6%.

Going from B3 to B4, the “% inhibition” value falls from -6% to -8%.

First: B5
Second: B6
The “% inhibition” value of the first is higher: -5% for the first, -13% for the second.

Target: T1, recombinant human EGFR extracellular …
Assay: SPR competition, competitor 1030corr
Method in brief: as §1

Going from B1 to B2, the “% inhibition” value falls from 18% to 0%.

B3 and B4 are the same in “% inhibition” value: -2% for the first, -2% for the second.

Going from B5 to B6, the “% inhibition” value rises from -6% to -5%.

Target: T1, recombinant human EGFR extracellular …
Assay: SPR competition, competitor 992 corr
Method in brief: as §1

First: B1
Second: B2
The “% inhibition” value of the first is higher: -10% for the first, -27% for the second.

Compared with B3, B4 is lower in “% inhibition” value: 7% for the first, -9% for the second.

First: B5
Second: B6
The “% inhibition” value of the first is higher: 14% for the first, 6% for the second.

Target: T1, recombinant human EGFR extracellular …
Assay: SPR competition, competitor Vectibix
Remark: another data set of the same source
Method in brief: as §1

Going from B1 to B2, the “% inhibition” value falls from 31% to 14%.

First: B3
Second: B4
The “% inhibition” value of the first is higher: -5% for the first, -7% for the second.

Compared with B5, B6 is higher in “% inhibition” value: -21% for the first, -2% for the second.
